According to patent US20100104550A1 (priority 2006, published 2010):
Entries after “also recorded” stand apart in the source; their conditions may differ.

How the values were obtained:
[1] = test system: caspase-3/7; assay type: cell-based, human
[2] = test system: parental F98 cells
[3] = target: EGFR (Homo sapiens, UniProt P00533); assay type: cell-based, rat
[4] = test system: MDA231luc-Dox cells; assay type: cell-based, human
[5] = test system: α-fodrin; assay type: cell-based, human
[6] = target: GRP78/BiP (Homo sapiens, UniProt P11021); assay type: cell-based
GRP78/BiP, sequence (P11021 19-654): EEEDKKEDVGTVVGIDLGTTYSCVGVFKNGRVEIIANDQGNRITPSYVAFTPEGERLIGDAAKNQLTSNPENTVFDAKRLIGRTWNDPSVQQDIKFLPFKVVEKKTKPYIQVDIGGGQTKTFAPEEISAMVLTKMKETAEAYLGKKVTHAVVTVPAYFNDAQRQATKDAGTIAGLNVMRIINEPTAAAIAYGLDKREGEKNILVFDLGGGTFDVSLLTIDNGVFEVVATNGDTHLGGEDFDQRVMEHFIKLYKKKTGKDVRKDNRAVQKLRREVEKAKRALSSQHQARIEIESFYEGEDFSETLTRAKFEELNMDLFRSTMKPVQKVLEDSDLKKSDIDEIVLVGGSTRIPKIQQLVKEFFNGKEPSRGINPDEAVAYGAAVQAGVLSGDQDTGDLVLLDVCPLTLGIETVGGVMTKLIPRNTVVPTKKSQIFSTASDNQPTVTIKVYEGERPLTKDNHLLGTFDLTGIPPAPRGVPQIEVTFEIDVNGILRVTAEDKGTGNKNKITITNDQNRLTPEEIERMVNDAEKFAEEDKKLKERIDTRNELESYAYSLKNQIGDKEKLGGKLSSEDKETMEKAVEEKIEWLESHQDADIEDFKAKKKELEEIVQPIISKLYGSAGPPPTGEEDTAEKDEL

[7] = test system: F98/EGFR-Dox cells; assay type: cell-based, rat
[8] = test system: MDA231luc cells; assay type: cell-based, human
[9] = test system: MDA231luc cells; assay type: cell-based, human; remark: listed apart in the source

B1: EGF-SubA: fusion protein (SEQ ID NO:13): Cys-tag, linker, human EGF, linker, 326 amino acid SubA fragment (protein)
chain: MKESCAKKFQRQHMDSGGGGSGGGGSGGGGSMGNSDSECPLSHDGYCLHDGVCMYIEALDKYACNCVVGYIGERCQYRDLKWWELRSMADIGSEKPWYFDAIGLTETTMSLTDKNTPVVVSVVDSGVAFIGGLSDSEFAKFSFTQDGSPFPVKKSEALYIHGTAMASLIASRYGIYGVYPHALISSRRVIPDGVQDSWIRAIESIMSNVFLAPGEEKIINISGGQKGVASASVWTELLSRMGRNNDRLIVAAVGNDGADIRKLSAQQRIWPAAYHPVSSVNKKQDPVIRVAALAQYRKGETPVLHGGGITGSRFGNNWVDIAAPGQNITFLRPDAKTGTGSGTSEATAIVSGVLAAMTSCNPRATATELKRTLLESADKYPSLVDKVTEGRVLNAEKAISMFCKKNYIPVRQGRMSEEL
modifications: fusion protein of subA and human EGF with cys tag consisting of SEQ ID NOS 7 to 12
In the case of B1, the “total DEVD- and specific caspase-3/7 activity” value [1] is reported as “significant increase”, the IC50 [2] is reported as about 2.5 nM and the EGFR tyrosine autophosphorylation [3] is reported as “induced EGFR tyrosine autophosphorylation in the same concentration range”. The “sensitivity of MDA231luc-Dox cells relative to parental MDA231luc” value [4] was “Enhanced sensitivity; also recorded: significantly more sensitive”, the “accumulation of 150-kDa and 120-kDa fragments of α-fodrin” value [5] was “Greater accumulation” and the “cleavage of BiP in combination treatment” value [6] was “effective cleavage of BiP”. The “cleavage of intracellular GRP78/BiP” value [6] was “appearance of a 28-kDa fragment; also recorded: selectively cleaves intracellular BiP”, the “sensitivity of F98/EGFR-Dox cells relative to parental F98/EGFR” value [7] was “Enhanced sensitivity; also recorded: significantly more sensitive” and the “effect of excess EGF on EGF-SubA toxicity” value [8] was “inhibited by excess of EGF; also recorded: excess of free EGF rescue cells”. For the same molecule, the “fold lower sensitivity of MDA-231luc cells vs F98/EGFR cells” value [8] was 10 fold, the “effect on bortezomib-induced cell growth inhibition” value [9] was “enhances cell growth inhibition” and the “effect on thapsigargin-induced cell growth inhibition” value [9] was “enhances cell growth inhibition”.
